The results in this text go back to paper PMC10397247.

In experiment [1] the target is T1, 4H908-bA.
T1 chain: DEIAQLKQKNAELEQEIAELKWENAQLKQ
The experiment can be described thus: two-hybrid library CCNG1.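 Also: natural log of median RNA to DNA barcode read ratio; higher means stronger binding.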

Experiment [2] deals with T2, 4H953-bA.
T2 chain: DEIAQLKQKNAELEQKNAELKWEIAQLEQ
The experiment can be described thus: two-hybrid library CCNG1.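 Also: natural log of median RNA to DNA barcode read ratio; higher means stronger binding.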

Experiment [3] deals with T3, 4H918-bA.
T3 chain: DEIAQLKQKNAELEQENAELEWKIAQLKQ
Put plainly: two-hybrid library CCNG1.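 Also: natural log of median RNA to DNA barcode read ratio; higher means stronger binding.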

The target in experiment [4] is T4, 4H883-bA.
T4 chain: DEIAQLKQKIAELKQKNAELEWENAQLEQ
The experiment can be described thus: two-hybrid library CCNG1.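 Also: natural log of median RNA to DNA barcode read ratio; higher means stronger binding.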

In experiment [5] the target is T5, 4H717-bA.
T5 chain: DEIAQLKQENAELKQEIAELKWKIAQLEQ
Put plainly: two-hybrid library CCNG1.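 Also: natural log of median RNA to DNA barcode read ratio; higher means stronger binding.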

Experiment [6] addresses T6, 4H607-bA.
T6 chain: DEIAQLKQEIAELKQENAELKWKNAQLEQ
Put plainly: two-hybrid library CCNG1.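 Also: natural log of median RNA to DNA barcode read ratio; higher means stronger binding.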

In experiment [7] the target is T7, 4H967-bA.
T7 chain: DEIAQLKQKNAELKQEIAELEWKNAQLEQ
Put plainly: two-hybrid library CCNG1.

The target in experiment [8] is T8, 4H797-bA.
T8 chain: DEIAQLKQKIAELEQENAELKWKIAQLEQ
The experiment can be described thus: two-hybrid library CCNG1.

For experiment [9], the target named is T9, 4H72-bA.
T9 chain: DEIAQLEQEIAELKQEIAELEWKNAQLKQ
The experiment can be described thus: two-hybrid library CCNG1.

For experiment [10], the target named is T10, 4H687-bA.
T10 chain: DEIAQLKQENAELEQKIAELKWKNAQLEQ
Put plainly: two-hybrid library CCNG1.

The target in experiment [11] is T11, 4H953-bH.
T11 chain: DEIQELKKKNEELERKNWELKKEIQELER
Put plainly: two-hybrid library CCNG1.

In experiment [12] the target is T12, 4H754-bA.
T12 chain: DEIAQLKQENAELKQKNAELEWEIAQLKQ
Put plainly: two-hybrid library CCNG1.

Experiment [13] has as its target T13, 4H949-bA.
T13 chain: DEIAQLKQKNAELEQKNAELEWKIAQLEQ
Put plainly: two-hybrid library CCNG1.

In experiment [14] the target is T14, 4H932-bN.
T14 chain: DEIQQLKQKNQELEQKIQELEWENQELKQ
The experiment can be described thus: two-hybrid library CCNG1.

Experiment [15] concerns the target T15, 4H949-bN.
T15 chain: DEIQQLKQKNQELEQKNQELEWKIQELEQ
The experiment can be described thus: two-hybrid library CCNG1.

The target of experiment [16] is T16, 4H3413-AA.
T16 chain: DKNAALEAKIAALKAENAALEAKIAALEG
The experiment can be described thus: two-hybrid library CCmax.

Experiment [17] has as its target T17, 4H3606-AA.
T17 chain: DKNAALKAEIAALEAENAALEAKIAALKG
Put plainly: two-hybrid library CCmax. The settings on record: mean of both orientations.

The target in experiment [18] is T18, 4H3697-AA.
T18 chain: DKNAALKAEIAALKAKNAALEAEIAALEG
Put plainly: two-hybrid library CCmax. The settings on record: mean of both orientations.

In experiment [19] the target is T19, 4H3588-AA.
T19 chain: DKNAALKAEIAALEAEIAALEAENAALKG
The experiment can be described thus: two-hybrid library CCmax. The settings on record: mean of both orientations.

Experiment [20] has as its target T20, 4H3718-AA.
T20 chain: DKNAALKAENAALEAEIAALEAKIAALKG
The experiment can be described thus: two-hybrid library CCmax. The settings on record: mean of both orientations.

The target of experiment [21] is T21, 4H697-AA.
T21 chain: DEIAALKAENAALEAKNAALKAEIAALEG
The experiment can be described thus: two-hybrid library CCmax. The settings on record: mean of both orientations.

Experiment [22] addresses T22, 4H982-AA.
T22 chain: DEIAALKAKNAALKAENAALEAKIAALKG
The experiment can be described thus: two-hybrid library CCmax. As to conditions: mean of both orientations.

Experiment [23] concerns the target T23, 4H3865-AA.
T23 chain: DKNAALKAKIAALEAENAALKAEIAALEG
Put plainly: two-hybrid library CCmax. As to conditions: mean of both orientations.

The target of experiment [24] is T24, 4H384-AA.
T24 chain: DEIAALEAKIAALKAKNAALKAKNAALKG
Put plainly: two-hybrid library CCmax. As to conditions: mean of both orientations.

For experiment [25], the target named is T25, 4H3631-AA.
T25 chain: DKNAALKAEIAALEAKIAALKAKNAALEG
Put plainly: two-hybrid library CCmax. The settings on record: mean of both orientations.

Experiment [26] has as its target T26, 4H909-AA.
T26 chain: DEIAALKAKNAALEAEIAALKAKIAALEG
The experiment can be described thus: two-hybrid library CCmax. As to conditions: mean of both orientations.

The target of experiment [27] is T27, 4H3410-AA.
T27 chain: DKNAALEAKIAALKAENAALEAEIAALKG
The experiment can be described thus: two-hybrid library CCmax. The settings on record: mean of both orientations.

Experiment [28] addresses T28, 4H930-AA.
T28 chain: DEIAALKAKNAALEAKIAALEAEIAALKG
Put plainly: two-hybrid library CCmax. As to conditions: mean of both orientations.

For experiment [29], the target named is T29, 4H458-AA.
T29 chain: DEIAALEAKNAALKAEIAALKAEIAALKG
Put plainly: two-hybrid library CCmax. As to conditions: mean of both orientations.

The target of experiment [30] is T30, 4H3381-AA.
T30 chain: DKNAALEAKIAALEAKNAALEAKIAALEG
Put plainly: two-hybrid library CCmax. The settings on record: mean of both orientations.

In experiment [31] the target is T31, 4H3753-AA.
T31 chain: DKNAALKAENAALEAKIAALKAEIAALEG
The experiment can be described thus: two-hybrid library CCmax. As to conditions: mean of both orientations.

In experiment [32] the target is T32, 4H3590-AA.
T32 chain: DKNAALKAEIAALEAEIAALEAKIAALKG
The experiment can be described thus: two-hybrid library CCmax. The settings on record: mean of both orientations.

Experiment [33] deals with T33, 4H310-AA.
T33 chain: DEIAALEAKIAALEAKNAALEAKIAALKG
The experiment can be described thus: two-hybrid library CCmax. The settings on record: mean of both orientations.

The target in experiment [34] is T34, 4H3130-AA.
T34 chain: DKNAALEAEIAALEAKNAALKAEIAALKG
The experiment can be described thus: two-hybrid library CCmax. As to conditions: mean of both orientations.

In experiment [35] the target is T35, 4H745-AA.
T35 chain: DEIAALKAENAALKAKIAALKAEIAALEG
The experiment can be described thus: two-hybrid library CCmax. The settings on record: mean of both orientations.

Experiment [36] addresses T36, 4H797-AA.
T36 chain: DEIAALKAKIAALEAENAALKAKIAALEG
The experiment can be described thus: two-hybrid library CCmax. As to conditions: mean of both orientations.

In experiment [37] the target is T37, 4H891-AA.
T37 chain: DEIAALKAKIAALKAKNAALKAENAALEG
Put plainly: two-hybrid library CCmax.

The target of experiment [38] is T38, 4H3120-AA.
T38 chain: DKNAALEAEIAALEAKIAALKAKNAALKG
Put plainly: two-hybrid library CCmax. As to conditions: mean of both orientations.

Experiment [39] has as its target T39, 4H485-AA.
T39 chain: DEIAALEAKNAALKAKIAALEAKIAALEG
Put plainly: two-hybrid library CCmax. The settings on record: mean of both orientations.

Experiment [40] has as its target T40, 4H710-AA.
T40 chain: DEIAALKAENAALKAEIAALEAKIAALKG
Put plainly: two-hybrid library CCmax. As to conditions: mean of both orientations.

Experiment [41] addresses T41, 4H3009-AA.
T41 chain: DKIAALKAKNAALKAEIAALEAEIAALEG
The experiment can be described thus: two-hybrid library CCmax.

For experiment [42], the target named is T42, 4H629-AA.
T42 chain: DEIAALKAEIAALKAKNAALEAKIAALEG
Put plainly: two-hybrid library CCmax. The settings on record: mean of both orientations.

The target of experiment [43] is T43, 4H570-AA.
T43 chain: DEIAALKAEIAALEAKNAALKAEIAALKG
Put plainly: two-hybrid library CCmax. As to conditions: mean of both orientations.

For experiment [44], the target named is T44, 4H3395-AA.
T44 chain: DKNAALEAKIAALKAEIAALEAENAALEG
Put plainly: two-hybrid library CCmax.

For experiment [45], the target named is T45, 4H3016-AA.
T45 chain: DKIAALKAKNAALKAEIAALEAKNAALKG
The experiment can be described thus: two-hybrid library CCmax. As to conditions: mean of both orientations.

Experiment [46] addresses T46, 4H3165-AA.
T46 chain: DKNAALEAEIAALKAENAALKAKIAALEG
The experiment can be described thus: two-hybrid library CCmax. The settings on record: mean of both orientations.

For experiment [47], the target named is T47, 4H850-AA.
T47 chain: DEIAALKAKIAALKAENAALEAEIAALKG
The experiment can be described thus: two-hybrid library CCmax. The settings on record: mean of both orientations.

Experiment [48] concerns the target T48, 4H94-AA.
T48 chain: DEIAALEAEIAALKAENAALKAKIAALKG
Put plainly: two-hybrid library CCmax. As to conditions: mean of both orientations.

In experiment [49] the target is T49, 4H536-AA.
T49 chain: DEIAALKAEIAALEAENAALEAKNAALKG
Put plainly: two-hybrid library CCmax. The settings on record: mean of both orientations.

For the molecule DEIAQLKQEIAELKQENAELKWKNAQLEQ [4H607-bA], the interaction score is -0.62 in experiment [1]; -0.667 in [2]; -1.07 in experiment [3]; -1.28 in experiment [4]; -0.469 in [5]; 0.454 in experiment [6]. The interaction score in experiment [7] is -1.29; in [8], -0.394; in [9] it was -0.746; in [10] it was -0.84; in [11], -1.41; in experiment [12], -0.503.
In experiment [13], DEIAQLKQKNAELEQKNAELEWKIAQLEQ [4H949-bA] registered an interaction score of -0.253.
For the molecule DEIQQLKQKNQELEQKIQELEWENQELKQ [4H932-bN], the interaction score in [14] was 1.01; in experiment [15], -1.08.
In the case of DKNAALEAKIAALKAENAALEAKIAALEG [4H3413-AA], the interaction score in [16] is 0.362; in [17], 1.14; in experiment [18], -0.722; in [19] it was -1.34; in experiment [20] it was -1.38; in experiment [21], -0.828. Besides, the interaction score in experiment [22] is -1.39; in experiment [23] it was 0.0208; in experiment [24], -0.506; in experiment [25], -1.19.
Consider DEIAQLKQENAELKQEIAELKWKIAQLEQ [4H717-bA], for which the interaction score in experiment [1] is 0.244; in [2], -0.433; in experiment [3], -0.185; in experiment [4], -1.09; in experiment [5] it was 0.924; in experiment [7], -0.574. In addition, the interaction score in experiment [8] is -1.13; in [9] it was 0.154; in [12], -0.36.
DEIQQLKQKNQELEQKNQELEWKIQELEQ [4H949-bN] came in with an interaction score in [15] of -0.614.
Turning to DKIAALKAKNAALKAEIAALEAEIAALEG [4H3009-AA], the interaction score in experiment [26] was 0.523; in [27], 0.321; in experiment [28] it was -0.0462; in experiment [29], 0.956; in experiment [30], -1.54; in [31], 1.09. For the same molecule, the interaction score in experiment [18] is 0.129; in experiment [32], 0.389; in experiment [33], -0.567; in [34] it was -0.967; in [35] it was 1.77; in experiment [36] it was -1.65. In addition, the interaction score in experiment [37] was -1.57; in experiment [38], -0.531; in [39] it was 1.22; in experiment [40], 1.94; in [41], 2.25; in experiment [42] it was 1.67. Also, the interaction score is -0.427 in experiment [43]; -1.6 in experiment [23]; -1.73 in experiment [44]; -1.16 in experiment [45]; -1.43 in experiment [46]; 1.63 in [47]. Also, the values for the interaction score in experiment [48] and in experiment [49] were -0.794 and -1.35, respectively.
